Biological target: T1, pentapeptide Gln-Pro-Gln-Gln-Pro
T1 chain: QPQQP

B1: FvePro4 (protein)
chain: ASRLSSRRWASSENMTKLDTTSRLNRLRGLMKERNVQIYIVPSEDSHSSEYIADCDARRAYISGFTGSAGCAVVTLESAALATDGRYFNQATSQLDSNWTLLKQGLQDVPTWQDWSAEQSSGGKNVGVDPTLISGSTAKNLAEKIRKNGGAELLPVDGNLVDLVWGDERPSRPSEQVIIQPDELAGESVLNKLTKVRQELEKKHSPGFLVSMLDEIAWLFNLRGNDIPYNPVFFAYATVTPDAAKLYIDEAKLDDKCRSHLTSNKVDIKPYETIFDDAQALHAAHAAKSKSGDKVPTGNFLISNKGSWALKRALGGDSSVDEIRSLIGDAKAIKTEAELKGMRDCHVRDGAALIQYFAWLEDQLVNKKATLDEVQAADKLEELRKVKKDFVGLSFPTISSTGANAAIIHYGPERGNCATIDPEAIYLCDSGAQYRDGTTDTTRTLHFGKPTEAEREAYTLVLKGHISLDQAIFPKGTTGFALDSLARQHLWKNGLDYRHGTGHGVGSFLNVHEGPIGIGTRVQYAEVALAPGNVLSNEPGYYEDGKYGIRIENMVLVKEVKTKHSFGDKPFLGFEYVTLVPYCRNLIDTTLLTSEEKEWLNTYNAKVLEKTQEYFEGDDVTLAWLKRETQHVE
**Q.** With B1 as the protein, how does the “pentapeptide hydrolysis (ninhydrin reaction, A570)” value read?
**A.** all purified proteases are capable of hydrolyzing pentapeptide Gln-Pro-Gln-Gln-Pro

Source: patent US20220136027
